Experimental data as given in the supplement of paper PMC10065799, “High-throughput profiling of sequence recognition by tyrosine kinases and SH2 domains using bacterial peptide display” (eLife, 2023).

Experiments:
AncSZ = experiment: phosphorylation enrichment, bacterial display (enrichment ratio); higher = better substrate or ligand; peptides without Tyr show the background
EPHB1 = EPHB1 (UniProt P54762); experiment: as above
EPHB2 = EPHB2 (UniProt P29323); experiment: as above
FGFR1 = FGFR1 (UniProt P11362); experiment: as above
FGFR3 = FGFR3 (UniProt P22607); experiment: as above
Fer (mouse) = experiment: as above
Fes = Fes (UniProt P07332); experiment: as above
Fyn = Fyn (UniProt P06241); experiment: as above
Hck = Hck (UniProt P08631); experiment: as above
Jak2 = Jak2 (UniProt O60674); experiment: as above
MERTK = MERTK (UniProt Q12866); experiment: as above
c-Abl (mouse) = experiment: as above
c-Src = experiment: as above
Grb2 SH2 = Grb2 SH2 (UniProt P62993); experiment: SH2 binding enrichment of the phosphorylated peptide, bacterial display (enrichment ratio); higher = better substrate or ligand; peptides without Tyr show the background
SHP2-C SH2 = experiment: as above
c-Src SH2 = experiment: as above
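For SH2 binding enrichment of the phosphorylated peptide, bacterial display in this document: peptide library displayed on the E. coli surface as eCPX fusions, selected cells deep-sequenced, score is each peptide's frequency after selection divided by its frequency in the input.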
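For phosphorylation enrichment, bacterial display in this document: 11-residue human phosphosite peptides and single-mutation variants displayed on the E. coli surface, counted by deep sequencing, each peptide's frequency after selection divided by its frequency in the unselected input library; frequency after pTyr selection over input frequency; kinase dosed for 20-30% of maximal phosphorylation in three min.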

Hck, sequence (P08631 whole entry, looked up): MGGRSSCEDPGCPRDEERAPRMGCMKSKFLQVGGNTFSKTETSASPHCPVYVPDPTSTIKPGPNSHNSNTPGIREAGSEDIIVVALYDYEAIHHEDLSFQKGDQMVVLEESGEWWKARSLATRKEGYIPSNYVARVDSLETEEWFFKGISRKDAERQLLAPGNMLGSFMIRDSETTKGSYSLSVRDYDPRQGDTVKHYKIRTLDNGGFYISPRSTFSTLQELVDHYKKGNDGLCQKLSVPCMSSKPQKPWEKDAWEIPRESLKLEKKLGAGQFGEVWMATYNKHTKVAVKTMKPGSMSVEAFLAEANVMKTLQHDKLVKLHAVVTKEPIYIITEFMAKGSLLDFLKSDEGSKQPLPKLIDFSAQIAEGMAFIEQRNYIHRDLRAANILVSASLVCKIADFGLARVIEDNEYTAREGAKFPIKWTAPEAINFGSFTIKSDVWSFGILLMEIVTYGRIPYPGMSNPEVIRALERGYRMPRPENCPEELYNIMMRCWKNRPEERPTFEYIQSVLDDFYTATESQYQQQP
FGFR1, sequence (P11362 whole entry, looked up): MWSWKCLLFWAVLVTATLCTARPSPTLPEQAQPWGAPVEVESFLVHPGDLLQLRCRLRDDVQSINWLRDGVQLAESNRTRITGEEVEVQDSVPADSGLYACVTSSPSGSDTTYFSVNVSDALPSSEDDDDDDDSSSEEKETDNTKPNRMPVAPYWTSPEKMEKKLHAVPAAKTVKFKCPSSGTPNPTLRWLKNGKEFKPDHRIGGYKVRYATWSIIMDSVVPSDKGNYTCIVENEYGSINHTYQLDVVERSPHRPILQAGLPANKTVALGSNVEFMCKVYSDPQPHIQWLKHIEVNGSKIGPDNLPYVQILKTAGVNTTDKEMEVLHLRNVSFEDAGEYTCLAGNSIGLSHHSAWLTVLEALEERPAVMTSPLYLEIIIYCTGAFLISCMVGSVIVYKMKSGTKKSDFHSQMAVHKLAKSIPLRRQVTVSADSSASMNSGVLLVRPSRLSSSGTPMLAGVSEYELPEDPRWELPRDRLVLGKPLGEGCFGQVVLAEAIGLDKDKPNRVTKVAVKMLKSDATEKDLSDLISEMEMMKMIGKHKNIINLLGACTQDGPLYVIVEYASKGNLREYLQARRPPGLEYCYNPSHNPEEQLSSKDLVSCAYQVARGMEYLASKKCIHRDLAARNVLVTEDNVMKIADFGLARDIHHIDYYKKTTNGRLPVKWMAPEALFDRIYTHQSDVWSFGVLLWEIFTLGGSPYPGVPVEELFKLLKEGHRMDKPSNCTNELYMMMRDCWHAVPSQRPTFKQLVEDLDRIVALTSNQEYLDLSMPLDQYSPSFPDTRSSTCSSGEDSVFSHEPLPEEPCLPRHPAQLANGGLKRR
Fes, sequence (P07332 whole entry, looked up): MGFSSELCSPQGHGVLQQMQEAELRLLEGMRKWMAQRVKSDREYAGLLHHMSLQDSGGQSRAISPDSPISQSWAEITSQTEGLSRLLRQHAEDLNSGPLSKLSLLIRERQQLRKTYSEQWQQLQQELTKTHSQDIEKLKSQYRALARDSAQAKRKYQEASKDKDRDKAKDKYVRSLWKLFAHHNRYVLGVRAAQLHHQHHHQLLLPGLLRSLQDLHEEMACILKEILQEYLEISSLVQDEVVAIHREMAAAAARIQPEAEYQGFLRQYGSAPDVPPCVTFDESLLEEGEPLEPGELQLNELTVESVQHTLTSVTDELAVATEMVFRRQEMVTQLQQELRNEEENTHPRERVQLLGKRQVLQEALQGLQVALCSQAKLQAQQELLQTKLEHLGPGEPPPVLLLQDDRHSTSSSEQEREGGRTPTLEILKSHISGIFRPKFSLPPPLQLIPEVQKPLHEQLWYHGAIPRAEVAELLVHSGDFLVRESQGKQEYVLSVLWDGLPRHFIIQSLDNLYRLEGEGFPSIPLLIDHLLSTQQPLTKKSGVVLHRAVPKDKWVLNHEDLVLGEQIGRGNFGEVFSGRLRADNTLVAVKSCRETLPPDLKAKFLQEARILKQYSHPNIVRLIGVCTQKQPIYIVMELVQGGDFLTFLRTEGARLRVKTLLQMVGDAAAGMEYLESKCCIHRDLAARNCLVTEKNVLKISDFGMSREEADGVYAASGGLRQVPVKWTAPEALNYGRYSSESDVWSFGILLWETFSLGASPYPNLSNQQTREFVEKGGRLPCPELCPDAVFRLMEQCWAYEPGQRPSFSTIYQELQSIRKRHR
MERTK, sequence (Q12866 whole entry, looked up): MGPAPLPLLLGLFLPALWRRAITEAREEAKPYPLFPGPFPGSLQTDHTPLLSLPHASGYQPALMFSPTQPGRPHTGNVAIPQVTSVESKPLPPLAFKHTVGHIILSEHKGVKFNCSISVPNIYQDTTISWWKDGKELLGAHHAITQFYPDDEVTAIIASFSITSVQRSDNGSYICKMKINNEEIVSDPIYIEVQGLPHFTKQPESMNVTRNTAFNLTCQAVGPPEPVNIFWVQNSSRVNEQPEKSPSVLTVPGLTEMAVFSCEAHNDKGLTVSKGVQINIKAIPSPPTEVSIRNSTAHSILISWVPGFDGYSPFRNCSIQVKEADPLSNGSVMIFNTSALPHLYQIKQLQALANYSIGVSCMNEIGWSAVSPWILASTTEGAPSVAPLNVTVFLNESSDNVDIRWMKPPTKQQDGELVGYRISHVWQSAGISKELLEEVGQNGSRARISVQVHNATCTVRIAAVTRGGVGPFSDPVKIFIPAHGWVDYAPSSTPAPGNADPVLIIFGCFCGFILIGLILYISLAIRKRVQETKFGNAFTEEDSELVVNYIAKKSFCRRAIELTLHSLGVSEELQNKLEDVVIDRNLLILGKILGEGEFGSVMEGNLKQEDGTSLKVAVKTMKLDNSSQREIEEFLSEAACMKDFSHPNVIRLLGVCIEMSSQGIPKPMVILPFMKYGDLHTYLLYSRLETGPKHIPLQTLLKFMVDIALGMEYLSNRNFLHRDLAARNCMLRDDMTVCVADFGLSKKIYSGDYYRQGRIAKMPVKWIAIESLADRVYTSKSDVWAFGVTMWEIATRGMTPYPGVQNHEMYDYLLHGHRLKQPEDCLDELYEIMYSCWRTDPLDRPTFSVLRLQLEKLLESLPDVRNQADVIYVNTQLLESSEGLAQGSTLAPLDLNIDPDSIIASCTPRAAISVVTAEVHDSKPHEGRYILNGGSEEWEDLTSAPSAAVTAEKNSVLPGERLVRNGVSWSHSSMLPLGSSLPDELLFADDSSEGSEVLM
Jak2, sequence (O60674 whole entry, looked up): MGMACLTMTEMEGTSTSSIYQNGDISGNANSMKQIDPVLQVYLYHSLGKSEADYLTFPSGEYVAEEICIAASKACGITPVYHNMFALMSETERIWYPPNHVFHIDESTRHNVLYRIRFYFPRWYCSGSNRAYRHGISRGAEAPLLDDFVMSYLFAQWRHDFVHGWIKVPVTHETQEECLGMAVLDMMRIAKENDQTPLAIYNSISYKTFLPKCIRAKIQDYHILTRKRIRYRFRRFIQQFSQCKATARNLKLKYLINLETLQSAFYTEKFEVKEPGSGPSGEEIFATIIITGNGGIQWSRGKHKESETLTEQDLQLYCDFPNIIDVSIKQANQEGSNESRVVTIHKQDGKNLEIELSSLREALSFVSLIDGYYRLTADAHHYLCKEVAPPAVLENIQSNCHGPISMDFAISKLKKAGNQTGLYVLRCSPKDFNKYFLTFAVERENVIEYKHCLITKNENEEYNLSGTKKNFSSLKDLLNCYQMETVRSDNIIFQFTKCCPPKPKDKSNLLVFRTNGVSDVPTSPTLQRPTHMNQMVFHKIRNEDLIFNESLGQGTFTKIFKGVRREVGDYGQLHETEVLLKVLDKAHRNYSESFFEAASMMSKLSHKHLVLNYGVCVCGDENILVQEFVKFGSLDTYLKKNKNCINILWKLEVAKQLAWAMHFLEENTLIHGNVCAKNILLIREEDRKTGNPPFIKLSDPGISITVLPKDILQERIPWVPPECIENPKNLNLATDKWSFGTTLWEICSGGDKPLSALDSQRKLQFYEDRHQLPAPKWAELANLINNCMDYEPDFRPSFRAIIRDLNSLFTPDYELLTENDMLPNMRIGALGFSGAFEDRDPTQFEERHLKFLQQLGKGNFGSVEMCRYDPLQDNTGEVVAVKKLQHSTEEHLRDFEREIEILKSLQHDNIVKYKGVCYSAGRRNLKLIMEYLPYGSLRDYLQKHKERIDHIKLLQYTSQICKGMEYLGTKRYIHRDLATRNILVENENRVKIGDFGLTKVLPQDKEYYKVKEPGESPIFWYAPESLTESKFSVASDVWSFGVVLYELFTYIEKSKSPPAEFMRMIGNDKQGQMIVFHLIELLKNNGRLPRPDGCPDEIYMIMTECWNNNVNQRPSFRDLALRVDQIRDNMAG
Fyn, sequence (P06241 whole entry, looked up): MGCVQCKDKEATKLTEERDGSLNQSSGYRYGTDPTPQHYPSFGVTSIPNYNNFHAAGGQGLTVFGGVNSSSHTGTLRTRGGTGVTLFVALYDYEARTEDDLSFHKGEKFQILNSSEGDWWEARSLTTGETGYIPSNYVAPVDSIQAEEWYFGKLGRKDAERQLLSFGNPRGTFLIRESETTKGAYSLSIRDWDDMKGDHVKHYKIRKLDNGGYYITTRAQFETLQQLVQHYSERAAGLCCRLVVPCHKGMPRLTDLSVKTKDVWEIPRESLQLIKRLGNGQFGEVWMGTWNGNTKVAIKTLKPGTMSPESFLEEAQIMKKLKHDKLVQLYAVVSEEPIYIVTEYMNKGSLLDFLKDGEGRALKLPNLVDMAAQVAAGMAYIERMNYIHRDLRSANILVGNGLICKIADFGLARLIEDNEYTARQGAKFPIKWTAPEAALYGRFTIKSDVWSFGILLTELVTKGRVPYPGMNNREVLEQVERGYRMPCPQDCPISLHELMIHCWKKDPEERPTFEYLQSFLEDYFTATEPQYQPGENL
Grb2 SH2, sequence (P62993 whole entry, looked up): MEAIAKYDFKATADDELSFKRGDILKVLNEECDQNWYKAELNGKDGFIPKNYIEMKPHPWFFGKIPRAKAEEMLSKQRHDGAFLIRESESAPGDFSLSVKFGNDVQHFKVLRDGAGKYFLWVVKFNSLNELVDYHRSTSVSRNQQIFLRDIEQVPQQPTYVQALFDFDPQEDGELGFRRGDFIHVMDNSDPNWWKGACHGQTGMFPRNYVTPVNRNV

Sequence | phosphorylation enrichment (AncSZ) | phosphorylation enrichment (EPHB1) | phosphorylation enrichment (EPHB2) | phosphorylation enrichment (FGFR1) | phosphorylation enrichment (FGFR3) | phosphorylation enrichment (Fer (mouse)) | phosphorylation enrichment (Fes) | phosphorylation enrichment (Fyn) | phosphorylation enrichment (Hck) | phosphorylation enrichment (Jak2) | phosphorylation enrichment (MERTK) | phosphorylation enrichment (c-Abl (mouse)) | phosphorylation enrichment (c-Src) | SH2 binding enrichment (Grb2 SH2) | SH2 binding enrichment (SHP2-C SH2) | SH2 binding enrichment (c-Src SH2)
RLLVVYRWTQR [HBB_Y36_P37R] | 1.56 | 0.372 | 0.787 | 0.652 | 0.761 | 0.711 | 1.25 | 0.639 | 0.567 | 0.926 | 0.463 | 0.601 | 0.402 | 0.663 | 0.799 | 0.493
RLNWIYYKDQT [RS1_Y165] | 1.53 | 0.985 | 0.712 | 0.643 | 0.98 | 0.844 | 2.66 | 0.687 | 0.947 | 1.78 | 0.672 | 0.676 | 0.616 | 1.11 | 0.801 | 0.735
RLPSGYGLAYR [DLK1_Y262] | 0.627 | 0.464 | 0.315 | 1.32 | 0.479 | 0.418 | 0.61 | 0.295 | 0.555 | 0.46 | 0.385 | 0.414 | 0.39 | 0.855 | 0.954 | 0.844
RLSVDYSKKSK [TUBA3E_Y161] | 0.515 | 1.09 | 0.389 | 0.373 | 0.34 | 0.35 | 0.553 | 0.247 | 0.442 | 0.408 | 0.461 | 0.433 | 0.36 | 0.894 | 0.526 | 0.387
RPFFLYVAFHN [SGSH_Y174_D179N] | 1.04 | 0.74 | 0.491 | 0.564 | 0.837 | 0.405 | 0.918 | 0.321 | 0.327 | 0.762 | 0.453 | 0.472 | 0.33 | 0.933 | 0.515 | 0.478
RPFSPYIIRGM [LRP5_Y1531_R1529S_YF] | 1.29 | 0.752 | 0.535 | 0.785 | 0.71 | 0.494 | 0.991 | 0.98 | 0.719 | 0.92 | 0.494 | 0.595 | 0.886 | 0.834 | 0.81 | 0.479
RPIEVYLCPEE [E2F3_Y349_G344R] | 3.41 | 1.49 | 0.998 | 1.11 | 1.3 | 0.938 | 3.24 | 1.06 | 1.04 | 3.12 | 0.975 | 1.97 | 2.55 | 0.918 | 0.809 | 0.559
RQQEDYLLYKQ [RARRES1_Y159] | 1.32 | 0.793 | 0.823 | 0.743 | 0.86 | 1.1 | 1.65 | 0.547 | 0.969 | 2.46 | 0.631 | 1.39 | 0.941 | 0.821 | 0.842 | 0.561
RQSTLYSFFPT [MSH6_Y8_K13T] | 1.35 | 16.1 | 21.2 | 9.72 | 7.04 | 14.2 | 1.26 | 7.89 | 9.63 | 0.824 | 16.8 | 3.62 | 7.3 | 1 | 1.4 | 0.752
RREQDYTNLPS [CSF1R_Y923_R921Q] | 0.805 | 0.573 | 0.468 | 1.01 | 0.951 | 0.532 | 1.75 | 0.446 | 0.492 | 0.449 | 0.466 | 0.691 | 0.446 | 0.926 | 0.821 | 0.759
RRGTGYTLPLP [MAGEC3_Y152_S155P] | 0.971 | 0.977 | 0.387 | 0.651 | 0.522 | 0.424 | 0.696 | 0.642 | 0.607 | 1.01 | 0.838 | 0.683 | 0.831 | 0.853 | 0.607 | 0.956
RSRQIYDAFIM [GRK3_Y109_YF] | 0.51 | 2.49 | 2.6 | 0.339 | 0.7 | 9.57 | 0.48 | 8.83 | 6.86 | 0.359 | 7.46 | 9.12 | 6.12 | 0.66 | 0.592 | 0.64
RSSGGYEPRGC [FUS_Y239_R244C] | 0.439 | 0.227 | 0.274 | 0.371 | 0.538 | 0.277 | 0.533 | 0.351 | 0.258 | 0.499 | 0.261 | 0.539 | 0.376 | 0.913 | 0.872 | 0.509
RSSKMYPKTRS [LPL_Y329_L330P] | 0.601 | 0.359 | 0.151 | 0.547 | 0.624 | 0.342 | 0.675 | 0.502 | 0.509 | 1.43 | 0.562 | 1.2 | 0.614 | 0.916 | 0.556 | 0.486
RSSNTYTLTDV [ALCAM_Y298] | 0.766 | 0.544 | 0.561 | 0.519 | 0.705 | 1.04 | 0.921 | 1.6 | 0.951 | 0.805 | 0.766 | 0.669 | 1.58 | 0.82 | 0.689 | 1.19
RTLIRYANLSN [BEST1_Y131_G135S] | 0.774 | 0.733 | 0.71 | 0.801 | 0.757 | 0.566 | 1.02 | 0.79 | 0.675 | 0.792 | 0.631 | 0.654 | 0.65 | 6.11 | 8.49 | 1.59
RTLSEYARRHV [RERE_Y1259_P1262R] | 0.613 | 0.353 | 0.373 | 0.393 | 0.494 | 0.404 | 0.629 | 0.338 | 0.461 | 0.596 | 0.572 | 2.14 | 0.446 | 0.826 | 0.567 | 0.448

Sequence | phosphorylation enrichment (AncSZ) | phosphorylation enrichment (EPHB1) | phosphorylation enrichment (EPHB2) | phosphorylation enrichment (FGFR1) | phosphorylation enrichment (FGFR3) | phosphorylation enrichment (Fer (mouse)) | phosphorylation enrichment (Fes) | phosphorylation enrichment (Fyn) | phosphorylation enrichment (Hck) | phosphorylation enrichment (Jak2) | phosphorylation enrichment (MERTK) | phosphorylation enrichment (c-Abl (mouse)) | phosphorylation enrichment (c-Src) | SH2 binding enrichment (Grb2 SH2) | SH2 binding enrichment (SHP2-C SH2) | SH2 binding enrichment (c-Src SH2)
RVGVDYEGRGC [PLOD1_Y675_G678R] | 1.01 | 0.69 | 0.464 | 0.617 | 0.709 | 0.51 | 1.02 | 0.542 | 0.528 | 0.616 | 0.59 | 0.575 | 0.424 | 0.902 | 0.797 | 0.638
RVLHNYLVWCV [ECEL1_Y400_R404C] | 1.25 | 1.02 | 0.752 | 0.773 | 1.02 | 0.647 | 1.5 | 0.535 | 0.611 | 1.42 | 0.631 | 0.933 | 0.561 | 0.921 | 0.901 | 0.643
RWGQKHMTAVV [CYBA_Y72_Y72H] | 1.13 | 0.516 | 0.559 | 0.483 | 0.74 | 0.692 | 1.39 | 0.699 | 0.5 | 2.7 | 0.587 | 0.81 | 0.496 | 1.68 | 1.66 | 1.6
RWQQLYDTLNA [EIF3M_Y351_Q346R] | 1.32 | 1.95 | 2.02 | 0.574 | 0.848 | 3.35 | 1.45 | 5.67 | 7.68 | 2.43 | 6.56 | 0.788 | 3.71 | 0.827 | 0.695 | 0.338
RYLKDYGEFEV [GINS1_Y156_C152Y] | 1.75 | 1.16 | 0.839 | 1.16 | 1.36 | 1 | 1.6 | 1.54 | 1 | 1.2 | 0.792 | 0.771 | 1.69 | 0.972 | 1.37 | 0.593
SAAAIYMVRHP [PMP22_Y117_T118M] | 0.756 | 2.45 | 1.82 | 0.425 | 0.519 | 0.53 | 0.77 | 4.97 | 7.71 | 0.587 | 3.25 | 1.65 | 5.44 | 0.884 | 1.02 | 0.68
SARFRYLLAEK [LDHB_Y173_M175L] | 0.724 | 0.35 | 0.477 | 0.439 | 0.55 | 0.452 | 0.697 | 0.514 | 0.508 | 0.641 | 0.498 | 0.783 | 0.515 | 0.766 | 0.593 | 0.437
SASRSYSRSRS [SRRM4_Y549] | 0.635 | 0.466 | 0.521 | 0.426 | 0.497 | 0.505 | 0.594 | 0.518 | 0.503 | 0.58 | 0.589 | 0.659 | 0.588 | 0.622 | 0.451 | 0.424
SCRSKYVGLWG [KCNQ1_Y184_G179S] | 0.665 | 0.39 | 0.497 | 0.364 | 0.456 | 0.465 | 0.984 | 0.419 | 0.423 | 0.574 | 0.451 | 0.541 | 0.509 | 1.18 | 0.721 | 0.866
SDGGCYEQLFV [MC4R_Y41] | 1.69 | 0.764 | 0.74 | 0.663 | 0.837 | 9.7 | 1.09 | 1.32 | 2.14 | 0.991 | 0.806 | 0.871 | 1.76 | 0.853 | 0.745 | 0.68
SDVCMYRKNIF [SYNE2_Y570_YF] | 0.906 | 0.536 | 0.479 | 0.48 | 0.712 | 0.354 | 1.12 | 0.371 | 0.355 | 0.931 | 0.448 | 0.793 | 0.436 | 0.794 | 0.74 | 0.554
SEDSEYFKAFE [CASQ2_Y178_YF] | 1.46 | 0.714 | 0.653 | 0.608 | 0.882 | 0.471 | 1.41 | 0.572 | 0.582 | 1.34 | 0.557 | 0.974 | 0.651 | 0.868 | 0.709 | 0.544
SFCFRYRCAPR [SUMF1_Y344_A348P_YF] | 0.883 | 0.527 | 0.549 | 0.509 | 0.587 | 0.726 | 0.69 | 0.605 | 0.633 | 0.811 | 0.73 | 0.75 | 0.701 | 0.783 | 0.584 | 0.486
SFPSTYRFERG [INPPL1_Y661_P659S_YF] | 0.538 | 0.345 | 0.394 | 0.411 | 0.538 | 0.427 | 0.652 | 0.39 | 0.479 | 0.724 | 0.392 | 0.644 | 0.569 | 0.828 | 0.655 | 0.466
SGASGYSATST [CERT1_Y143] | 0.594 | 0.391 | 0.514 | 0.478 | 0.446 | 0.448 | 0.594 | 0.491 | 0.478 | 0.539 | 0.44 | 0.468 | 0.417 | 0.704 | 0.578 | 0.486
SGRPGYCLGTR [SCO1_Y60] | 0.735 | 0.488 | 0.51 | 0.406 | 0.563 | 0.407 | 0.874 | 0.474 | 0.426 | 0.58 | 0.462 | 0.618 | 0.41 | 1.12 | 0.891 | 0.77
